Experimental data as given in publication PMC6876990 (2019).

Biological target: T1, Smac peptide AVPIAQKSEKY (Homo sapiens)
T1 chain: AVPIAQKSEKY
Test: ITC

Kd: 428 nM
B1: WT-XIAP BIR3 241-356 (protein)
chain: SDAVSSDRNFPNSTNLPRNPSMADYEARIFTFGTWIYSVNKEQLARAGFYALGEGDKVKCFHCGGGLTDWKPSEDPWEQHAKWYPGCKYLLEQKGQEYINNIHLTHSLEECLVRTT
